Results published in patent publication US20220127633A1.

Key:
[1] = target: TIR1 receptor protein with 6 His, maltose-binding protein (MBP) and FLAG affinity tags, expressed in insect cell culture using a recombinant baculovirus (UniProt Q570C0); experiment: SPR; with 2,4-D
[2] = target: TIR1 receptor protein with 6 His, maltose-binding protein (MBP) and FLAG affinity tags, expressed in insect cell culture using a recombinant baculovirus (UniProt Q570C0); experiment: SPR; with dicamba
[3] = target: TIR1 receptor protein with 6 His, maltose-binding protein (MBP) and FLAG affinity tags, expressed in insect cell culture using a recombinant baculovirus (UniProt Q570C0); experiment: SPR; with IAA (auxin)

Substance	koff [1]	koff [2]	koff [3]
biotinylated Sisymbrium orientale IAA2 wild-type degron peptide	1.93E-03 ?	3.29E-02 ?	2.08E-04 ?
biotinylated Sisymbrium orientale IAA2Δ27 degron peptide (9 amino acid deletion in the degron tail)	2.71E-03 ?	4.04E-02 ?	5.01E-04 ?
